Results on two molecules are retold here after publication PMC6795808, “N6-methyladenosine modification of circNSUN2 facilitates cytoplasmic export and stabilizes HMGA2 to promote colorectal liver metastasis”.

Data set [1] addresses IGF2BP2 WT (UniProt Q9Y6M1 1-599). As to the kind of experiment: EMSA; dose-dependent; confirmed by supershift; LightShift Chemiluminescent RNA EMSA kit binding buffer (composition not stated), 30 min, room temperature; 6% native PAGE, 0.5x TBE; supershift preincubation with antibody 20 min at 0 C. Conditions: protein: recombinant; tags: FLAG; label: 3'-biotin.
The target of data set [2] is YTHDC1 WT (UniProt Q96MU7 1-727). As to the kind of experiment: EMSA; LightShift Chemiluminescent RNA EMSA kit binding buffer (composition not stated), 30 min, room temperature; 6% native PAGE, 0.5x TBE; supershift preincubation with antibody 20 min at 0 C. Conditions: protein: recombinant; tags: FLAG; label: 3'-biotin.

Chain of IGF2BP2 WT (Q9Y6M1 whole entry): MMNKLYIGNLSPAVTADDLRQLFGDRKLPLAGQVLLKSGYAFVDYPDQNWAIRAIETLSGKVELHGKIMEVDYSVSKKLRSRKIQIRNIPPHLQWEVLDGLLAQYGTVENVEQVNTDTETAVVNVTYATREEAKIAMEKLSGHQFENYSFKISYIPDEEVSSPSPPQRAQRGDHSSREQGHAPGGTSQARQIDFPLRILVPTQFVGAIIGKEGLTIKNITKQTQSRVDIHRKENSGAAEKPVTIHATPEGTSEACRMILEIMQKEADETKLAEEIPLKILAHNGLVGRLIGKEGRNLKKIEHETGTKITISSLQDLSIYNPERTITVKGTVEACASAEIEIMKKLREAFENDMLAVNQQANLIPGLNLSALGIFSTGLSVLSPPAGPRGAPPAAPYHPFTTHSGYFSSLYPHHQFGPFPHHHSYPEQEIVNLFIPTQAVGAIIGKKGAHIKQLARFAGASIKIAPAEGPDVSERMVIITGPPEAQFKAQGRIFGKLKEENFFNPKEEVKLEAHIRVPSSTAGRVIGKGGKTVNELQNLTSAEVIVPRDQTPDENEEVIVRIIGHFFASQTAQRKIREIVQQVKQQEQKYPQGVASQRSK

Regarding CCUCAUCAUAAGGUAUCCUG (ssRNA) [circNSUN2 wild type (IGF2BP2 probe)], in data set [1], the binding result was “binds”.

B1: circNSUN2-m6A wild type (ssRNA)
RNA: AUAAGGUAUCCUGAAGAACU
modifications: m6A not marked in the printed sequence; whether A18 is methylated in the probe is unclear
In the case of B1, the binding result in data set [2] is listed as “binds”.
